This is an account of results in publication PMC10618305, “An intramolecular disulphide bond in human 4E-T affects its binding to eIF4E1a protein” (European Biophysics Journal, 2023).

Where a chain is given by its changes, count along the chain named. In names and notes the source's numbering stands. Bridge positions count the residues as written; N and C are the ends.

Data set [1] deals with human eIF4E1a protein (human) (UniProt P06730). The experiment in a line: differential scanning fluorimetry (thermal shift); non-reducing: 50 mM HEPES-KOH pH 7.2, 100 mM KCl, no TCEP; 5 µM eIF4E1a with 0-50 µM h4E-T(1-68) variant incubated without TCEP (up to 48 h, 4 or 20 °C), or SEC-purified dimers at 1:1; SYPRO Orange; shift of the Tm of eIF4E1a. A general note: DSF heats the sample and reads unfolding from a dye or from intrinsic fluorescence.
Chain of human eIF4E1a protein (human) (P06730 whole entry): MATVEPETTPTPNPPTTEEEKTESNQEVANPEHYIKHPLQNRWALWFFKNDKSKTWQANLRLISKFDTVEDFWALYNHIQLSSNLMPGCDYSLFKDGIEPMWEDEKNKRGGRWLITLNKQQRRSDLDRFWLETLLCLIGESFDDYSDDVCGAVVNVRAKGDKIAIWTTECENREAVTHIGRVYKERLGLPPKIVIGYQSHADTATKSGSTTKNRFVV

Data set [2] has as its target human 4E-T(1-68) wild type, monomer SH (both cysteines reduced) (human) (UniProt Q9NRA8). The experiment in a line: SEC; non-reducing: monomer fractions incubated 24 h at 20 °C in TCEP-free 50 mM HEPES-KOH pH 7.2 with KCl, Enrich SEC70 column, 20 °C; dimers are held by intermolecular disulphide bonds. A general note: SEC sorts molecules by how far they enter the pores of the column.

Data set [3] addresses T1, human eIF4E1a protein (human, UniProt P06730 1-217).
T1 construct: human eukaryotic translation initiation factor 4E, isoform called eIF4E1a; Extinction coefficient used: 52,940 M^-1 cm^-1; also called heIF4E1a; eukaryotic initiation factor 4E
The experiment in a line: differential scanning fluorimetry (thermal shift); non-reducing: 50 mM HEPES-KOH pH 7.2, 100 mM KCl, no TCEP; 5 µM eIF4E1a with 0-50 µM h4E-T(1-68) variant incubated without TCEP (up to 48 h, 4 or 20 °C), or SEC-purified dimers at 1:1; SYPRO Orange; shift of the Tm of eIF4E1a. Conditions: both partners purified.
T1 sequence (P06730 whole entry, canonical isoform): as the sequence (P06730 whole entry) above

Data set [4] addresses T1, human eIF4E1a protein. Briefly: ITC; non-reducing: 50 mM HEPES-KOH pH 7.2, 100 mM KCl, no TCEP, 20 °C; 20 µM eIF4E1a in the cell titrated with 200 µM h4E-T(1-68) WT; one-site model. Conditions: both partners purified. (In general: Isothermal titration calorimetry measures the heat released or taken up as one component is titrated into another.)
For data set [5], the target named is T1, human eIF4E1a protein. Briefly: differential scanning fluorimetry (thermal shift); non-reducing: 50 mM HEPES-KOH pH 7.2, 100 mM KCl, no TCEP; 5 µM eIF4E1a with 0-50 µM h4E-T(1-68) variant incubated without TCEP (up to 48 h, 4 or 20 °C), or SEC-purified dimers at 1:1; SYPRO Orange; shift of the Tm of eIF4E1a. Conditions: both partners purified. The source holds these as a separate data set.

For data set [6], the target named is T1, human eIF4E1a protein. Briefly: differential scanning fluorimetry (thermal shift); reducing: 50 mM HEPES-KOH pH 7.2, 100 mM KCl, 1 mM TCEP; 5 µM eIF4E1a with 0-50 µM h4E-T(1-68) variant; SYPRO Orange; shift of the Tm of eIF4E1a. The conditions noted are these: both partners purified.
In data set [7] the target is T1, human eIF4E1a protein. The description is as above. The conditions noted are these: both partners purified. This is another data set of the same source.
The target in data set [8] is T1, human eIF4E1a protein. The experiment in a line: ITC; reducing: 50 mM HEPES-KOH pH 7.2, 100 mM KCl, 1 mM TCEP, 20 °C; 5 or 10 µM eIF4E1a in the cell titrated with ten-fold concentrated h4E-T(1-68) variant; one-site model. The conditions noted are these: both partners purified.
For data set [9], the target named is T2, human eIF4E1a protein (human, UniProt P06730 1-217).
T2 construct: eukaryotic translation initiation factor 4E, isoform 1a (eIF4E1a), human; Extinction coefficient used: 52,940 M^-1 cm^-1; also called heIF4E1a; eukaryotic initiation factor 4E
Briefly: ITC; eIF4E1a (5 or 10 uM) in the cell, titrated with a ten-fold concentrated h4E-T(1-68) variant; 20 °C; 50 mM HEPES-KOH pH 7.2, 100 mM KCl, with 1 mM TCEP (reducing); one-site model. The conditions noted are these: both partners purified.
T2 sequence (P06730 whole entry, canonical isoform): as the sequence (P06730 whole entry) above

Data set [10] concerns the target T2, human eIF4E1a protein. Briefly: ITC; eIF4E1a in the cell, titrated with a ten-fold concentrated h4E-T(1-68) variant (for WT: 20 uM eIF4E1a, 200 uM h4E-T); 20 °C; 50 mM HEPES-KOH pH 7.2, 100 mM KCl, without TCEP (non-reducing); one-site model. The conditions noted are these: both partners purified.
Data set [11] concerns the molecule itself. The experiment in a line: SEC; non-reducing: monomer fractions incubated 24 h at 20 °C in TCEP-free 50 mM HEPES-KOH pH 7.2 with KCl, Enrich SEC70 column, 20 °C; dimers are held by intermolecular disulphide bonds.

Take “dimeric form of human 4E-T(1-68) C50A (intermolecular disulphide bond) (from UniProt Q9NRA8 1-68) (complex)”: in data set [1], the fold lower ΔTm than the corresponding monomer amounted to 2 fold; the ΔTm lower than that of the monomer-dimer mixture was 2.5 °C; the ΔΔTm against the monomer SS of WT h4E-T(1-68), 1:1 mixture came to 7 °C.
By stoichiometry N is commonly meant the number of molecules, sites or subunits per partner or assembly. Regarding “human 4E-T(1-68) wild type, monomer SH (both cysteines reduced) (from UniProt Q9NRA8 1-68) (domain or fragment)”, in [2], the percent in the dimeric form came to 10% and the stoichiometry N was determined as 2.
In the case of “dimeric form of human 4E-T(1-68) C26A (intermolecular disulphide bond) (from UniProt Q9NRA8 1-68) (complex)”, in [1], the fold lower ΔTm than the corresponding monomer came out at 2 fold; the ΔTm lower than that of the monomer-dimer mixture was found to be 2.5 °C; the ΔΔTm against the monomer SS of WT h4E-T(1-68), 1:1 mixture came out at 5.5 °C.

B1: human 4E-T(1-68) wild type with the intramolecular disulphide bond Cys26-Cys50 (monomer SS) (domain or fragment, UniProt Q9NRA8 1-68, looked up)
chain: MDRRSMGETESGDAFLDLKKPPASKCPHRYTKEELLDIKELPHSKQRPSCLSEKYDSDGVWDPEKWHA
modifications: disulfide 26-50
notes: human 4E-Transporter (4E-T), N-terminal fragment, residues 1-68; Same construct as m2, oxidised; The samples without TCEP may still hold some monomer SH and a small fraction of dimer; also called h4E-T(1-68) WT under non-reducing conditions; disulphide loop form
Broadly, the Kd is the free concentration of one partner at which half of the binding sites on the other are occupied at equilibrium, for simple one-to-one binding. A higher Kd goes with lower affinity. As to B1, the “Tm of eIF4E in the 1:1 mixture (melting peak after 3 h at 20 °C without TCEP)” value in data set [3] was determined as 41.5 ± 0.5 °C. The dissociation constant Kd in data set [4] was determined as 800 ± 96 nM. For the same molecule, in data set [5], the “ΔTm of eIF4E at eIF4E:h4E-T(1-68) 1:1” value amounted to 1 ± 0.5 °C and the “ΔTm of eIF4E at eIF4E:h4E-T(1-68) 1:10” value is 9.5 ± 0.5 °C.

B2: human 4E-T(1-68) wild type, monomer SH (both cysteines reduced) (domain or fragment, UniProt Q9NRA8 1-68, looked up)
chain: B1 chain
notes: pET28a construct, His6-tag cleavable by thrombin; also called h4E-T(1-68) WT; h4ET(1-68)
On to B2, for which, in [6], the “ΔTm of eIF4E at eIF4E:h4E-T(1-68) 1:1” value is 12 ± 0.5 °C and the “ΔTm of eIF4E at eIF4E:h4E-T(1-68) 1:10” value is 15.5 ± 0.5 °C. In addition, in [3], the “Tm of eIF4E in the 1:1 mixture (melting peak after 3 h at 20 °C without TCEP)” value came to 51.5 ± 0.5 °C. In addition, in data set [7], the “Tm of eIF4E in the 1:1 mixture (zero time)” value turned out to be 52.5 ± 0.5 °C. The molecule further had a Kd in data set [8] of 2.7 ± 0.5 nM.

B3: human 4E-T(1-68) wild type, reduced (monomer SH) (domain or fragment, UniProt Q9NRA8 1-68, looked up)
chain: B1 chain
notes: 4E-Transporter (4E-T), human, residues 1-68; The His6-tag is cleavable by thrombin, but no cleavage is described; Kept in 1 mM TCEP, with both cysteines reduced; also called h4E-T(1-68) WT; h4ET(1-68)
Consider B3, for which, in data set [9], the Ka amounted to 3.73e+08 ± 6.8e+07 M⁻¹.

B4: human 4E-T(1-68) wild type under non-reducing conditions (monomer SS, intramolecular disulphide bond) (domain or fragment, UniProt Q9NRA8 1-68, looked up)
chain: B1 chain
modifications: disulfide 26-50
notes: 4E-Transporter (4E-T), human, residues 1-68; Same construct as Wm2, in TCEP-free buffer; also called h4E-T(1-68) WT without TCEP; disulphide loop form
As to B4, the Ka in [10] came to 1.25e+06 ± 150000 M⁻¹.

B5: human 4E-T(1-68) C50A (domain or fragment, UniProt Q9NRA8 1-68, looked up)
chain: B1 chain with C50A
notes: human 4E-Transporter (4E-T), N-terminal fragment, residues 1-68; Without TCEP the samples are a mixture of monomer and disulphide-linked dimer; also called C50A mutant
For the molecule B5, the “stoichiometry N” value in data set [11] amounted to 2. In addition, the “ΔTm of eIF4E at eIF4E:h4E-T(1-68) 1:1” value was 11.5 ± 0.5 °C in data set [6], 12 ± 0.5 °C in data set [7] and 10.5 ± 0.5 °C in [5]. Also, the results for the “ΔTm of eIF4E at eIF4E:h4E-T(1-68) 1:10” value in [6] and in data set [5] were 15.5 ± 0.5 °C and 14.5 ± 0.5 °C, respectively.

B6: human 4E-T(1-68) C26AC50A (domain or fragment, UniProt Q9NRA8 1-68, looked up)
chain: B1 chain with C26A, C50A
notes: 4E-Transporter (4E-T), human, residues 1-68, with C26A and C50A; This mutant cannot form any disulphide bond; also called h4E-T(1-68)C26AC50A; double cysteine mutant
As to B6, the Ka in data set [10] was determined as 3.27e+08 ± 2.2e+07 M⁻¹.

B7: human 4E-T(1-68) C26A (domain or fragment, UniProt Q9NRA8 1-68, looked up)
chain: B1 chain with C26A
notes: human 4E-Transporter (4E-T), N-terminal fragment, residues 1-68; Without TCEP the samples are a mixture of monomer and disulphide-linked dimer; also called C26A mutant; C26 mutant
Consider B7, for which the “stoichiometry N” value in data set [11] turned out to be 2. The “ΔTm of eIF4E at eIF4E:h4E-T(1-68) 1:1” value in [6] stood at 12 ± 0.5 °C; in data set [5], 9 ± 0.5 °C. The “ΔTm of eIF4E at eIF4E:h4E-T(1-68) 1:10” value turned out to be 15.5 ± 0.5 °C in [6] and 12.5 ± 0.5 °C in [5]. The molecule also gave a Kd in data set [8] of 1.5 ± 0.5 nM.

B8: human 4E-T(1-68) C26A (domain or fragment, UniProt Q9NRA8 1-68, looked up)
chain: B1 chain with C26A
notes: 4E-Transporter (4E-T), human, residues 1-68, with C26A; also called h4E-T(1-68)C26A; C26A mutant
B8: the Ka in data set [10] is approximately 1e+08 M⁻¹; in data set [9], 6.64e+08 ± 8.4e+07 M⁻¹.

B9: human 4E-T(1-68) C26AC50A (domain or fragment, UniProt Q9NRA8 1-68, looked up)
chain: B1 chain with C26A, C50A
notes: human 4E-Transporter (4E-T), N-terminal fragment, residues 1-68; also called double cysteine mutant
As to B9, in data set [8], binding was characterised by a dissociation constant (Kd) of 3.1 ± 0.2 nM. Moreover, in data set [5], the “ΔTm of eIF4E at eIF4E:h4E-T(1-68) 1:1” value came out at 10.5 ± 0.5 °C and the “ΔTm of eIF4E at eIF4E:h4E-T(1-68) 1:10” value is 14.5 ± 0.5 °C.
